Experimental data published in patent US20200140562A1 (Innovent, published 2020).

How the values were obtained:
[1] = molecular target: T1, human OX40 on cells (CHO-hOX40, 293HEK-hOX40, Jurkat-hOX40, activated primary CD4+ T cells) (human, UniProt P43489 29-277); test: flow cytometry, CHO-hOX40, 1.5625 nM
T1 construct: whole, on cells; The cell type is told in each assay; also called CHO-OX40
T1 sequence (looked up): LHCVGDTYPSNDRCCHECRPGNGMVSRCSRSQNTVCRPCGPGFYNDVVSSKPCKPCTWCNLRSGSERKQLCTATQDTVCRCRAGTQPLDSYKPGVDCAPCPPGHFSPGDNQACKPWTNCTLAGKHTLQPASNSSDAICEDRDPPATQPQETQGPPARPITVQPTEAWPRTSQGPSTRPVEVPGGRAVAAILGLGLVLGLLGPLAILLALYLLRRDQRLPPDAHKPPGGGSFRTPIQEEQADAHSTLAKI

[2] = molecular target: T1, human OX40 on cells (CHO-hOX40, …); test: flow cytometry, CHO-hOX40, 100 nM blocker, competitor OX40L-hFc-fluorescein
[3] = molecular target: T1, human OX40 on cells (CHO-hOX40, …); test: flow cytometry, CHO-hOX40, 0.78125 nM
[4] = molecular target: T1, human OX40 on cells (CHO-hOX40, …); test: flow cytometry, CHO-hOX40, 0.390625 nM
[5] = molecular target: T1, human OX40 on cells (CHO-hOX40, …); test: flow cytometry competition on CHO cells expressing human OX40; blocked ligand OX40L-mFc (60 ug/ml), detected with anti-murine Fc-FITC
[6] = molecular target: T1, human OX40 on cells (CHO-hOX40, …); test: flow cytometry, CHO-hOX40, 0.048828125 nM
[7] = molecular target: T1, human OX40 on cells (CHO-hOX40, …); test: flow cytometry, CHO-hOX40, 0.1953125 nM
[8] = molecular target: T1, human OX40 on cells (CHO-hOX40, …); test: flow cytometry, CHO-hOX40
[9] = molecular target: T1, human OX40 on cells (CHO-hOX40, …); test: flow cytometry, CHO-hOX40, 50 nM
[10] = molecular target: T1, human OX40 on cells (CHO-hOX40, …); test: flow cytometry, CHO-hOX40, 0.09765625 nM
[11] = molecular target: T1, human OX40 on cells (CHO-hOX40, …); test: flow cytometry, CHO-hOX40, 1.5625 nM; remark: listed apart in the source
[12] = molecular target: T1, human OX40 on cells (CHO-hOX40, …); test: flow cytometry, CHO-hOX40, 25 nM
[13] = molecular target: T1, human OX40 on cells (CHO-hOX40, …); test: cell-based or functional assay

B1: OX40L (control reagent; recombinant OX40L, Acro Biosystems) (ligand, UniProt P23510 51-183, looked up)
chain: QVSHRYPRIQSIKVQFTEYKKEKGFILTSQKEDEIMKVQNNSVIINCDGFYLISLKGYFSQEVNISLHYQKDEEPLFQLKKVRSVNSLMVASLTYKDKVYLNVTTDNTSLDDFHVNGGELILIHQNPGEFCVL
notes: may be the same reagent as OX40L-hFc
Q: How did the MFI [1] turn out when B1 was run?
A: 172000 MFI

Q: What about the “MFI of OX40L signal on CHO-OX40 cells” value [2] of the same binder?
A: 19300 MFI

Q: And the MFI [3]?
A: 86000 MFI

Q: And the MFI [4]?
A: 49700 MFI

Q: What about the “IC50 (read off the curve)” value [5] of the same binder?
A: ~20 nM

Q: What about the MFI [6] of the same binder?
A: 34000 MFI

Q: What about the MFI [7] of the same binder?
A: 83200 MFI

Q: And the EC50 [8]?
A: 5.33 nM

Q: What about the MFI [9] of the same binder?
A: 1.08e+06 MFI

Q: And the MFI [10]?
A: 35200 MFI

Q: What about the MFI [11] of the same binder?
A: 554000 MFI

Q: What about the MFI [12] of the same binder?
A: 2.8e+06 MFI

Q: And the “NFkB-Luc fold change in Jurkat stimulated by PHA+ anti-CD28” value [13]?
A: 4.82 fold over IgG4 control

Q: What about the “NFkB-Luc fold change in Jurkat stimulated by anti-CD3+ anti-CD28” value [13] of the same binder?
A: 4.05 fold over IgG4 control
